The values that follow come from patent EP4671273A1 (Anaveon AG, dated 2025).

B1: CDP278 (bispecific antibody, human IgG1, kappa, lambda, L234A L235A)
heavy 1: EVQLLESGGGLVQPGGSLRLSCAASGFTFSINAMTWVRQAPGKGLEWVSTISGSGFSTYYADSLKGRFTISRDNSKNTLYLQMNSLRAEDTAVYYCAKEVYGDYWGQGTLVTVSSASTKGPSVFPLAPSSKSTSGGTAALGCLVKDYFPEPVTVSWNSGALTSGVHTFPAVLQSSGLYSLSSVVTVPSSSLGTQTYICNVNHKPSNTKVDKRVEPKSCDKTHTCPPCPAPEAAGGPSVFLFPPKPKDTLMISRTPEVTCVVVDVSHEDPEVKFNWYVDGVEVHNAKTKPREEQYNSTYRVVSVLTVLHQDWLNGKEYKCKVSNKALAAPIEKTISKAKGQPREPQVCTLPPSREEMTKNQVSLSCAVKGFYPSDIAVEWESNGQPENNYKTTPPVLDSDGSFFLVSKLTVDKSRWQQGNVFSCSVMHEALHNHYTQKSLSLSPGK
light 1: not shown
heavy 2: QVQLQESGPGLVKPSETLSLTCTVSGGSISSDFWGWIRQPPGKGLEWIGYISSRGSTNYNPSLKRRVTISVDTSRNQFSLKLSSVTAADTAVYYCARSAGVTDFDFWGQGTLVTVSSASTKGPSVFPLAPSSKSTSGGTAALGCLVKDYFPEPVTVSWNSGALTSGVHTFPAVLQSSGLYSLSSVVTVPSSSLGTQTYICNVNHKPSNTKVDKRVEPKSCDKTHTCPPCPAPEAAGGPSVFLFPPKPKDTLMISRTPEVTCVVVDVSHEDPEVKFNWYVDGVEVHNAKTKPREEQYNSTYRVVSVLTVLHQDWLNGKEYKCKVSNKALAAPIEKTISKAKGQPREPQVYTLPPCREEMTKNQVSLWCLVKGFYPSDIAVEWESNGQPENNYKTTPPVLDSDGSFFLYSKLTVDKSRWQQGNVFSCSVMHEALHNHYTQKSLSLSPGK
light 2: not shown
B2: EJD551 (bispecific antibody, human IgG1, kappa, lambda, L234A L235A)
heavy 1: EVQLLESGGGLVQPGGSLRLSCAASGFTFSINAMTWVRQAPGKGLEWVSTISGSGFSTYYADSLKGRFTISRDNSKNTLYLQMNSLRAEDTAVYYCAKEVYGDYWGQGTLVTVSSASTKGPSVFPLAPSSKSTSGGTAALGCLVKDYFPEPVTVSWNSGALTSGVHTFPAVLQSSGLYSLSSVVTVPSSSLGTQTYICNVNHKPSNTKVDKRVEPKSCDKTHTCPPCPAPEAAGGPSVFLFPPKPKDTLMISRTPEVTCVVVDVSHEDPEVKFNWYVDGVEVHNAKTKPREEQYNSTYRVVSVLTVLHQDWLNGKEYKCKVSNKALAAPIEKTISKAKGQPREPQVCTLPPSREEMTKNQVSLSCAVKGFYPSDIAVEWESNGQPENNYKTTPPVLDSDGSFFLVSKLTVDKSRWQQGNVFSCSVMHEALHNHYTQKSLSLSPGK
light: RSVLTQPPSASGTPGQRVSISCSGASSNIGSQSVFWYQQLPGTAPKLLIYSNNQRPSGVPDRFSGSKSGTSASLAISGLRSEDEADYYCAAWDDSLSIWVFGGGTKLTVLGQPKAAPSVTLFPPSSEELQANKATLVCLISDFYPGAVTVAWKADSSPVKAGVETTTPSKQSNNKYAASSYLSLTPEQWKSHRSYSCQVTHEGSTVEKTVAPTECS
heavy 2: QVQLQESGPGLVKPSETLSLTCTVSGGSISSDYWGWIRQPPGKGLEWIGYISYRGSTNYNPSLKSRVTISVDTSRNQFSLKLSSVTAADTAVYYCARSAGVTDFDWWGQGTLVTVSSASTKGPSVFPLAPSSKSTSGGTAALGCLVKDYFPEPVTVSWNSGALTSGVHTFPAVLQSSGLYSLSSVVTVPSSSLGTQTYICNVNHKPSNTKVDKRVEPKSCDKTHTCPPCPAPEAAGGPSVFLFPPKPKDTLMISRTPEVTCVVVDVSHEDPEVKFNWYVDGVEVHNAKTKPREEQYNSTYRVVSVLTVLHQDWLNGKEYKCKVSNKALAAPIEKTISKAKGQPREPQVYTLPPCREEMTKNQVSLWCLVKGFYPSDIAVEWESNGQPENNYKTTPPVLDSDGSFFLYSKLTVDKSRWQQGNVFSCSVMHEALHNHYTQKSLSLSPGK
chain: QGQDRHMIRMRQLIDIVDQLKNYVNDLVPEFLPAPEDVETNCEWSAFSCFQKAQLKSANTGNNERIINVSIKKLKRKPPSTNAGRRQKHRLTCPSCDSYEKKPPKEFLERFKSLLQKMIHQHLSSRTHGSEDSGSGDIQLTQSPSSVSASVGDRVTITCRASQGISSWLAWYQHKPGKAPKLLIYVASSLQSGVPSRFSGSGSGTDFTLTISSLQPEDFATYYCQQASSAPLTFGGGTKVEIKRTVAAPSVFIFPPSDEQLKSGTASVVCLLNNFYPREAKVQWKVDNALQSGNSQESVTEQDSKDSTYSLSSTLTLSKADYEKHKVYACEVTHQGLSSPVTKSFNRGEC
B3: CDP451 (bispecific antibody, human IgG1, kappa, lambda, L234A L235A)
heavy 1: EVQLLESGGGLVQPGGSLRLSCAASGFTFSINAMTWVRQAPGKGLEWVSTISGSGFSTYYADSLKGRFTISRDNSKNTLYLQMNSLRAEDTAVYYCAKEVYGDYWGQGTLVTVSSASTKGPSVFPLAPSSKSTSGGTAALGCLVKDYFPEPVTVSWNSGALTSGVHTFPAVLQSSGLYSLSSVVTVPSSSLGTQTYICNVNHKPSNTKVDKRVEPKSCDKTHTCPPCPAPEAAGGPSVFLFPPKPKDTLMISRTPEVTCVVVDVSHEDPEVKFNWYVDGVEVHNAKTKPREEQYNSTYRVVSVLTVLHQDWLNGKEYKCKVSNKALAAPIEKTISKAKGQPREPQVCTLPPSREEMTKNQVSLSCAVKGFYPSDIAVEWESNGQPENNYKTTPPVLDSDGSFFLVSKLTVDKSRWQQGNVFSCSVMHEALHNHYTQKSLSLSPGK
light 1: not shown
heavy 2: QVQLQESGPGLVKPSETLSLTCTVSGGSISSDFWGWIRQPPGKGLEWIGYISSRGSTNYNPSLKRRVTISVDTSRNQFSLKLSSVTAADTAVYYCARSAGVTDFDFWGQGTLVTVSSASTKGPSVFPLAPSSKSTSGGTAALGCLVKDYFPEPVTVSWNSGALTSGVHTFPAVLQSSGLYSLSSVVTVPSSSLGTQTYICNVNHKPSNTKVDKRVEPKSCDKTHTCPPCPAPEAAGGPSVFLFPPKPKDTLMISRTPEVTCVVVDVSHEDPEVKFNWYVDGVEVHNAKTKPREEQYNSTYRVVSVLTVLHQDWLNGKEYKCKVSNKALAAPIEKTISKAKGQPREPQVYTLPPCREEMTKNQVSLWCLVKGFYPSDIAVEWESNGQPENNYKTTPPVLDSDGSFFLYSKLTVDKSRWQQGNVFSCSVMHEALHNHYTQKSLSLSPGK
light 2: not shown
B4: GMH764 (bispecific antibody, human IgG1, kappa, lambda, L234A L235A)
heavy 1: EVQLLESGGGLVQPGGSLRLSCAASGFTFSINAMTWVRQAPGKGLEWVSTISGSGFSTYYADSLKGRFTISRDNSKNTLYLQMNSLRAEDTAVYYCAKEVYGDYWGQGTLVTVSSASTKGPSVFPLAPSSKSTSGGTAALGCLVKDYFPEPVTVSWNSGALTSGVHTFPAVLQSSGLYSLSSVVTVPSSSLGTQTYICNVNHKPSNTKVDKRVEPKSCDKTHTCPPCPAPEAAGGPSVFLFPPKPKDTLMISRTPEVTCVVVDVSHEDPEVKFNWYVDGVEVHNAKTKPREEQYNSTYRVVSVLTVLHQDWLNGKEYKCKVSNKALAAPIEKTISKAKGQPREPQVCTLPPSREEMTKNQVSLSCAVKGFYPSDIAVEWESNGQPENNYKTTPPVLDSDGSFFLVSKLTVDKSRWQQGNVFSCSVMHEALHNHYTQKSLSLSPGK
light 1: not shown
heavy 2: QVQLQESGPGLVKPSETLSLTCTVSGGSISSDYWGWIRQPPGKGLEWIGYISYRGSTNYNPSLKSRVTISVDTSRNQFSLKLSSVTAADTAVYYCARSAGVTDFDWWGQGTLVTVSSASTKGPSVFPLAPSSKSTSGGTAALGCLVKDYFPEPVTVSWNSGALTSGVHTFPAVLQSSGLYSLSSVVTVPSSSLGTQTYICNVNHKPSNTKVDKRVEPKSCDKTHTCPPCPAPEAAGGPSVFLFPPKPKDTLMISRTPEVTCVVVDVSHEDPEVKFNWYVDGVEVHNAKTKPREEQYNSTYRVVSVLTVLHQDWLNGKEYKCKVSNKALAAPIEKTISKAKGQPREPQVYTLPPCREEMTKNQVSLWCLVKGFYPSDIAVEWESNGQPENNYKTTPPVLDSDGSFFLYSKLTVDKSRWQQGNVFSCSVMHEALHNHYTQKSLSLSPGK
light 2: not shown
B5: GSV075 (bispecific antibody, human IgG1, kappa, lambda, L234A L235A)
heavy 1: EVQLLESGGGLVQPGGSLRLSCAASGFTFSINAMTWVRQAPGKGLEWVSTISGSGFSTYYADSLKGRFTISRDNSKNTLYLQMNSLRAEDTAVYYCAKEVYGDYWGQGTLVTVSSASTKGPSVFPLAPSSKSTSGGTAALGCLVKDYFPEPVTVSWNSGALTSGVHTFPAVLQSSGLYSLSSVVTVPSSSLGTQTYICNVNHKPSNTKVDKRVEPKSCDKTHTCPPCPAPEAAGGPSVFLFPPKPKDTLMISRTPEVTCVVVDVSHEDPEVKFNWYVDGVEVHNAKTKPREEQYNSTYRVVSVLTVLHQDWLNGKEYKCKVSNKALAAPIEKTISKAKGQPREPQVCTLPPSREEMTKNQVSLSCAVKGFYPSDIAVEWESNGQPENNYKTTPPVLDSDGSFFLVSKLTVDKSRWQQGNVFSCSVMHEALHNHYTQKSLSLSPGK
light 1: not shown
heavy 2: QVQLQESGPGLVKPSETLSLTCTVSGGSISSDYWGWIRQPPGKGLEWIGYISYRGSTNYNPSLKSRVTISVDTSRNQFSLKLSSVTAADTAVYYCARSAGVTDFDWWGQGTLVTVSSASTKGPSVFPLAPSSKSTSGGTAALGCLVKDYFPEPVTVSWNSGALTSGVHTFPAVLQSSGLYSLSSVVTVPSSSLGTQTYICNVNHKPSNTKVDKRVEPKSCDKTHTCPPCPAPEAAGGPSVFLFPPKPKDTLMISRTPEVTCVVVDVSHEDPEVKFNWYVDGVEVHNAKTKPREEQYNSTYRVVSVLTVLHQDWLNGKEYKCKVSNKALAAPIEKTISKAKGQPREPQVYTLPPCREEMTKNQVSLWCLVKGFYPSDIAVEWESNGQPENNYKTTPPVLDSDGSFFLYSKLTVDKSRWQQGNVFSCSVMHEALHNHYTQKSLSLSPGK
light 2: not shown
B6: ETR048 (bispecific antibody, human IgG1, kappa, lambda, L234A L235A)
heavy 1: EVQLLESGGGLVQPGGSLRLSCAASGFTFSINAMTWVRQAPGKGLEWVSTISGSGFSTYYADSLKGRFTISRDNSKNTLYLQMNSLRAEDTAVYYCAKEVYGDYWGQGTLVTVSSASTKGPSVFPLAPSSKSTSGGTAALGCLVKDYFPEPVTVSWNSGALTSGVHTFPAVLQSSGLYSLSSVVTVPSSSLGTQTYICNVNHKPSNTKVDKRVEPKSCDKTHTCPPCPAPEAAGGPSVFLFPPKPKDTLMISRTPEVTCVVVDVSHEDPEVKFNWYVDGVEVHNAKTKPREEQYNSTYRVVSVLTVLHQDWLNGKEYKCKVSNKALAAPIEKTISKAKGQPREPQVCTLPPSREEMTKNQVSLSCAVKGFYPSDIAVEWESNGQPENNYKTTPPVLDSDGSFFLVSKLTVDKSRWQQGNVFSCSVMHEALHNHYTQKSLSLSPGK
light 1: not shown
heavy 2: QVQLQESGPGLVKPSETLSLTCTVSGGSISSDYWGWIRQPPGKGLEWIGYISYRGSTNYNPSLKSRVTISVDTSRNQFSLKLSSVTAADTAVYYCARSAGVTDFDWWGQGTLVTVSSASTKGPSVFPLAPSSKSTSGGTAALGCLVKDYFPEPVTVSWNSGALTSGVHTFPAVLQSSGLYSLSSVVTVPSSSLGTQTYICNVNHKPSNTKVDKRVEPKSCDKTHTCPPCPAPEAAGGPSVFLFPPKPKDTLMISRTPEVTCVVVDVSHEDPEVKFNWYVDGVEVHNAKTKPREEQYNSTYRVVSVLTVLHQDWLNGKEYKCKVSNKALAAPIEKTISKAKGQPREPQVYTLPPCREEMTKNQVSLWCLVKGFYPSDIAVEWESNGQPENNYKTTPPVLDSDGSFFLYSKLTVDKSRWQQGNVFSCSVMHEALHNHYTQKSLSLSPGK
light 2: not shown

For this test, the target named is human IL-21 receptor (IL-21R) on cells (human, UniProt Q9HBE5 20-538; P31785 23-369). Put plainly: cell-based or functional assay.
human IL-21 receptor (IL-21R) on cells, sequence (Q9HBE5 20-538, chain 1 of 2): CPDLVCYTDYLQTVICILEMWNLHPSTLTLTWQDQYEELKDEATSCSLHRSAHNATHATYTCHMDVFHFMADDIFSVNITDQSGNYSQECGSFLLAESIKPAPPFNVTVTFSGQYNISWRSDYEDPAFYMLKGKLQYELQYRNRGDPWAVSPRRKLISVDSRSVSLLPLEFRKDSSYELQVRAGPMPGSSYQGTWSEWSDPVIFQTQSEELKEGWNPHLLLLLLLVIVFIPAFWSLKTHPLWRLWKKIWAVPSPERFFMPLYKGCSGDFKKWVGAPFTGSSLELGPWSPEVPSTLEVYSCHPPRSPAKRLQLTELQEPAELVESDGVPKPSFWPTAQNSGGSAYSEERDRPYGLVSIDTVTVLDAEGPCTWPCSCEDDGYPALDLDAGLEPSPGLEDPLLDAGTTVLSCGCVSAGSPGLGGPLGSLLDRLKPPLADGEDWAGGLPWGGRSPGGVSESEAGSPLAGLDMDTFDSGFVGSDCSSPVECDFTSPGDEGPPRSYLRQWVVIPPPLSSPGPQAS
human IL-21 receptor (IL-21R) on cells, sequence (P31785 23-369, chain 2 of 2): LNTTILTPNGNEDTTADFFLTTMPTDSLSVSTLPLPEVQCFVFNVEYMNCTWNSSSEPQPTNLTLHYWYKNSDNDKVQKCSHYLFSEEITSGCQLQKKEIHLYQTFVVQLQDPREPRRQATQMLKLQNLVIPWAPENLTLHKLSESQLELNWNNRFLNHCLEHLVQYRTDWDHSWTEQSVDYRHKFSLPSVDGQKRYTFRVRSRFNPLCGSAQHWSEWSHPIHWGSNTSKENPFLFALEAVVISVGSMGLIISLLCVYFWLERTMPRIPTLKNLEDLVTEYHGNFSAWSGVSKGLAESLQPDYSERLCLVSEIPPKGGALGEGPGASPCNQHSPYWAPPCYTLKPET
Consider B1, for which the “EC50B, pSTAT3+ Jurkat PD-1 cells, PD-1 blocked” value amounted to 1.05 nM and the “EC50NB, pSTAT3+ Jurkat PD-1 cells” value is 0.167 nM.
Taken in the same sequence, the figures for B2 were 1.06 nM and 0.016 nM.
For B3, the “EC50B, pSTAT3+ Jurkat PD-1 cells, PD-1 blocked” value worked out at 1.24 nM and the “EC50NB, pSTAT3+ Jurkat PD-1 cells” value came to 0.106 nM.
Taken in the same sequence, the figures for B4 were 0.872 nM and 0.013 nM.
For B5 the same measures were 0.627 nM and 0.023 nM.
Taken in the same sequence, the figures for B6 were 0.751 nM and 0.012 nM.
